{
  "source": "paper PMC6336319",
  "about": "“EBNA3C facilitates RASSF1A downregulation through ubiquitin-mediated degradation and promoter hypermethylation to drive B-cell proliferation” (PLoS Pathogens, 2019)",
  "binders": {"B1": {"name": "Myc-tagged full-length RASSF1A (Ras association domain family isoform 1A) (natural protein, human, UniProt Q9NS23-2 1-340, looked up)", "chain": "MSGEPELIELRELAPAGRAGKGRTRLERANALRIARGTACNPTRQLVPGRGHRFQPAGPATHTWCDLCGDFIWGVVRKGLQCAHCKFTCHYRCRALVCLDCCGPRDLGWEPAVERDTNVDEPVEWETPDLSQAEIEQKIKEYNAQINSNLFMSLNKDGSYTGFIKVQLKLVRPVSVPSSKKPPSLQDARRGPGRGTSVRRRTSFYLPKDAVKHLHVLSRTRAREVIEALLRKFLVVDDPRKFALFERAERHGQVYLRKLLDDEQPLRLRLLAGPSDKALSFVLKENDSGEVNWDAFSMPELHNFLRILQREEEEHLRQILQKYSYCRQKIQEALHACPLG", "notes": "RASSF1A (Ras association domain family isoform 1A), full length, amplified from total RNA by RT-PCR and cloned into pA3M; also called Myc-RASSF1A; pA3M-RASSF1A; source: Saos-2, transfected, in lysate"}},
  "target": "T1, Flag-tagged EBNA3C 366-620 (Epstein-Barr virus, UniProt P03204 366-620)",
  "T1 construct": "also called pA3F-EBNA3C 366–620; EBNA3C 366-620aa; source: Saos-2, transfected, in lysate",
  "T1 sequence": "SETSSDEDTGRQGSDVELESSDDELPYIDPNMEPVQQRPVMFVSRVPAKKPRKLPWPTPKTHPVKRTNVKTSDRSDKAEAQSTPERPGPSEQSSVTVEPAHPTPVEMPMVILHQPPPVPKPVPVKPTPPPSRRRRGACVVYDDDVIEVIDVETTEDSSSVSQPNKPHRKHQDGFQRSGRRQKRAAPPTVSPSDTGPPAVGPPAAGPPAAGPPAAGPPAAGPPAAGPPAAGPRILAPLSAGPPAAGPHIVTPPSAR",
  "experiment": "co-IP; Saos-2 cells co-transfected, lysed 48 h later in RIPA buffer (1% NP-40, 10 mM Tris pH 8.0, 2 mM EDTA, 150 mM NaCl); immunoprecipitation with 1 ug anti-Flag antibody, overnight at 4 °C; western blot with anti-Flag and anti-Myc",
  "conditions": "partners not purified",
  "data": [
    {"binder": "B1", "values": [
      {"measurement": "signal relative to EBNA3C residues 1-365", "value": "~50", "unit": "%"}
    ]}
  ]
}
